Reference: patent KR20220022226A (dated 2022)

T1: GST 택(tag)이 달린 IL-33 (human, UniProt O95760 112-270)
T1 construct: also called GST-IL-33; 재조합 GST-IL-33; not shown: Glutathione S-transferase (GST) tag; It is N-terminal, since stop codons pla
T1 sequence: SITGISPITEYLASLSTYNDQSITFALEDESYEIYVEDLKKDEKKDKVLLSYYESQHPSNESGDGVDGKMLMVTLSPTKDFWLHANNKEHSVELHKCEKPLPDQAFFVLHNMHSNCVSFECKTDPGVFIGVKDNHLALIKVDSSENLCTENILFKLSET


Assays:
GST 택(tag)이 달린 IL-33 = target: T1, GST 택(tag)이 달린 IL-33; test: ELISA, antigen fixed and scFv titrated
IL-1b = IL-1b (UniProt P01584 117-269); test: immunoblot, C2_2E12 as primary antibody, anti-HA-HRP as secondary
IL-6 = IL-6 (UniProt P05231 30-212); test: as above
BSA = target: T2, BSA (UniProt P02769 25-607); test: as above
T2 construct: Unrelated control protein in the immunoblot
T2 sequence (P02769 25-607 limits assumed): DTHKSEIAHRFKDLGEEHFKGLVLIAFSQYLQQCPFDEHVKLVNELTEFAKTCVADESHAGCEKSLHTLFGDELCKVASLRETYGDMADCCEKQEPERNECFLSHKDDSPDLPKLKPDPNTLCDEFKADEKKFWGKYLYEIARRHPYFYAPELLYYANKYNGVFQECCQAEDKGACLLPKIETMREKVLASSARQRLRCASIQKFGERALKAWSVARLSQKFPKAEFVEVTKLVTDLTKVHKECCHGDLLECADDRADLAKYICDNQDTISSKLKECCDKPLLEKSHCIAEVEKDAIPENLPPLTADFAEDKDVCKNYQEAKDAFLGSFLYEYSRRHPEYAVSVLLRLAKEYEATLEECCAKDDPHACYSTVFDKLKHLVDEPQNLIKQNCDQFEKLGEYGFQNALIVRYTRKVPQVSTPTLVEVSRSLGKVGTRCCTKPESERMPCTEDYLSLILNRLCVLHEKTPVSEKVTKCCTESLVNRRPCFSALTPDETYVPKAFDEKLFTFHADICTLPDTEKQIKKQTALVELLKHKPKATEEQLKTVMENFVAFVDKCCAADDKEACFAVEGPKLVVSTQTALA

Row | Binder | Kd (GST 택(tag)이 달린 IL-33) [nM] | binding result (IL-1b) | binding result (IL-6) | binding result (BSA)
1 | C2_2E12 (scFv, The recombinant scFv was purified on Ni-NTA agarose and detected with anti-HA-HRP, so the protein tested probably carried His and HA tags; also called Anti-IL-33 scFv C2_2E12; 재조합 C2_2E12 scFv 항체) scFv: EVQLLESGGGLVQPGGSLRLSCAASGFTFSSYYMSWVRQAPGKGLEWVSAISPGSSNKYYADSVKGRFTISRDNSKNTLYLQMNSLRAEDTAVYYCARLTLSFDYWGQGTPVTVSSGGGGSGGGGSGGGGSQSVLTQPPSASGTPGQRVTISCSGSSSNIGSNDVSWYQQLPGTAPKLLIYADSKRPSGVPDRFSGSKSGTSASLAISGLRSEDEADYYCASWDSSLSAYVFGGGTKLTVLG | 28 | no binding (tested: 0.5 mg/ml, 1:100 희석) | no binding (tested: 0.5 mg/ml, 1:100 희석) | no binding (tested: 0.5 mg/ml, 1:100 희석)
2 | C2_2H5 (scFv, scFv clone from a synthetic human scFv phage library; also called Anti-IL-33 scFv C2_2H5) scFv: EVQLLESGGGLVQPGGSLRLSCAASGFTFSSYYMSWVRQAPGKGLEWVSAISPGSSNKYYADSVKGQFTISRDNSKNTLYLQMNSLRAEDTAVYYCAKLSQSFDYWGQGTLVTVSSGGGGSGGGGSGGSGSQSVLTQPPSASGTPGQRVTISCTGSSSNIGNNGISWYQQLPGTAPKLLIYDNSHRPSGVPDRFSGSKSGTSASLAISGLRSEDETDYYCASWDSSLSGYVFGGGTKLTVLGQAGQHHHHHHGAYPYDVPDYAS | 31 | – | – | –
3 | C2_1D5 (scFv, scFv clone from a synthetic human scFv phage library; also called Anti-IL-33 scFv C2_1D5) scFv: EVQLLESGGGLVQPGGSLRLSCAASGFTFSSYYMSWVRQAPGKGLEWVSAISPGSSNKYYADSVKGRFTISRDNSKNTLYLQMNSLRAEDTAVYYCARLLSAFDYWGQGTLVTVSSGGGGSGGGGSGGGGSQSVLTQPPSASGTPGQRVTISCSGSSSNIGSNDVSWYQQLPGTAPKLLIYSDSNRPSGVPDRFSGSKSGTSASLAISGLRSEDEADYYCGAWDSSLSGYVFGGGTKLTVLGQAGQHHHHHHGAYPYDVPDYAS | 36 | – | – | –
4 | C2_2A10 (scFv, scFv clone from a synthetic human scFv phage library; also called Anti-IL-33 scFv C2_2A10) scFv: EVQLLESGGGLVQPGGSLRLSCAASGFTFSSYYMSWVRQAPGKGLEWVSAISPGSSNKYYADSVKGRFTISRDNSKNTLYLQMNSLGAEDTAVYYCAKLLTGFDYWGQGTLVTVSSGGGGSGGGGSGGGGSQSVLTQPPSASGTPGQRVTISCSGSSSNIGNNAVSWYQQLPGTAPKLLIYDDNHRPSGVPDRFSGSKSGTSASLAISGLRSEDEADYYCGTWDSSLSAYVFGGGTKLTVLGQAGQHHHHHHGAYPYDVPDYAS | 57 | – | – | –
5 | C1_1E1 (scFv, scFv clone from a synthetic human scFv phage library; also called Anti-IL-33 scFv C1_1E1) scFv: EVQLLESGGGLVQPGGSLRLSCAASGFTFSSYYMSWVRQAPGKGLEWVSAISPGSSNKYYADSVKGRFTISRDNSKNTLYLQMNSLRAEDTAVYYCAKLTSAFDYWGQGTLVTVSSGGGDSGGGGSGGGGSQSVLTQPPSASGTPGQRVTISCTGSSSNIGSNDVTWYQQLPGTAPKLLIYSDNKRPSGVPDRFSGSKSGTSASLAISGLRSEEEADYYCGAWDSSLSGYVFGGGTKLTVLGQAGQHHHHHHGAYPYDVPDYAS | 48 | – | – | –
6 | C2_2E1 (scFv, scFv clone from a synthetic human scFv phage library; also called Anti-IL-33 scFv C2_2E1) scFv: EVQLLESGGGLVQPGGSLRLSCAASGFTFSSYYMSWVRQAPGRGLEWVSAISPGSSNKYYADSVKGRFTISRDNSKNTLYLQMNSLRAEDTAVYYCARMTSSFDYWGQGTLVTVSSGGGGSGGGGSGGGGSQSVLTQPPSASGTPGQRVTISCSGSSSNIGNNDVSWYQQLPGTAPKLLIYSDSQRPSGVPDRFSGSKSGTSASLAISGLRSEDEADYYCGSWDYSLSAYVFGGGTKLTVLGQAGQHHHHHHGAYPYDVPDYAS | 35 | – | – | –
